# Patent publication US12630600B2 (MEDIMMUNE LIMITED, priority 2022, dated 2026)
# Starred links: 1 amine or outer side, 2 acyl side, 3 side chain; linkers in the order of their positions; H or OH if unused. Non-standard residues stand in square brackets, D forms with d. Groups on a side chain read outwards from the residue. Primed or numbered codes have the meaning given here. No end group written: not given here. *: point of attachment. C18 diacid = O=C(O)CCCCCCCCCCCCCCCCC(=O)*; γGlu = O=C(O)[C@H](CCC(=O)[*:2])N[*:1]; Stearoyl = CCCCCCCCCCCCCCCCCC(=O)*; αMeF = C[C@](N)(Cc1ccccc1)C(=O)O; PEG2′ = polyethylene glycol 2; αMeS = C[C@](N)(CO)C(=O)O; AEEA = NCCOCCOCC(=O)O; Aib = CC(C)(N)C(=O)O
# B1: Peptide 17 (peptide)
# peptide: H[Aib]HGS[αMeF]TSDVSK[αMeF]LDSK([AEEA-AEEA-γGlu-C18 diacid])AARD[αMeF]VESIANT-NH2
# modifications: N-terminus assumed
# SMILES: CC[C@H](C)[C@H](NC(=O)[C@H](CO)NC(=O)[C@H](CCC(=O)O)NC(=O)[C@@H](NC(=O)[C@](C)(Cc1ccccc1)NC(=O)[C@H](CC(=O)O)NC(=O)[C@H](CCCNC(=N)N)NC(=O)[C@H](C)NC(=O)[C@H](C)NC(=O)[C@H](CCCCNC(=O)COCCOCCNC(=O)COCCOCCNC(=O)CC[C@H](NC(=O)CCCCCCCCCCCCCCCCC(=O)O)C(=O)O)NC(=O)[C@H](CO)NC(=O)[C@H](CC(=O)O)NC(=O)[C@H](CC(C)C)NC(=O)[C@](C)(Cc1ccccc1)NC(=O)[C@H](CCCCN)NC(=O)[C@H](CO)NC(=O)[C@@H](NC(=O)[C@H](CC(=O)O)NC(=O)[C@H](CO)NC(=O)[C@@H](NC(=O)[C@](C)(Cc1ccccc1)NC(=O)[C@H](CO)NC(=O)CNC(=O)[C@H](Cc1c[nH]cn1)NC(=O)C(C)(C)NC(=O)[C@@H](N)Cc1c[nH]cn1)[C@@H](C)O)C(C)C)C(C)C)C(=O)N[C@@H](C)C(=O)N[C@@H](CC(N)=O)C(=O)N[C@H](C(N)=O)[C@@H](C)O
# B2: Peptide 1 (peptide)
# peptide: HSQGS[αMeF]TSDVSK[Aib]LDSK([AEEA-AEEA-γGlu-C18 diacid])AAQD[αMeF]VQ[Aib]IAN-NH2
# modifications: N-terminus assumed
# SMILES: CC[C@H](C)[C@H](NC(=O)C(C)(C)NC(=O)[C@H](CCC(N)=O)NC(=O)[C@@H](NC(=O)[C@](C)(Cc1ccccc1)NC(=O)[C@H](CC(=O)O)NC(=O)[C@H](CCC(N)=O)NC(=O)[C@H](C)NC(=O)[C@H](C)NC(=O)[C@H](CCCCNC(=O)COCCOCCNC(=O)COCCOCCNC(=O)CC[C@H](NC(=O)CCCCCCCCCCCCCCCCC(=O)O)C(=O)O)NC(=O)[C@H](CO)NC(=O)[C@H](CC(=O)O)NC(=O)[C@H](CC(C)C)NC(=O)C(C)(C)NC(=O)[C@H](CCCCN)NC(=O)[C@H](CO)NC(=O)[C@@H](NC(=O)[C@H](CC(=O)O)NC(=O)[C@H](CO)NC(=O)[C@@H](NC(=O)[C@](C)(Cc1ccccc1)NC(=O)[C@H](CO)NC(=O)CNC(=O)[C@H](CCC(N)=O)NC(=O)[C@H](CO)NC(=O)[C@@H](N)Cc1c[nH]cn1)[C@@H](C)O)C(C)C)C(C)C)C(=O)N[C@@H](C)C(=O)N[C@@H](CC(N)=O)C(N)=O
# B3: Peptide 16 (peptide)
# peptide: H[Aib]HGS[αMeF]TSDVSK[αMeF]LDSK([AEEA-AEEA-γGlu-C18 diacid])AARD[αMeF]IA[Aib]IANT-NH2
# modifications: N-terminus assumed
# SMILES: CC[C@H](C)[C@H](NC(=O)C(C)(C)NC(=O)[C@H](C)NC(=O)[C@@H](NC(=O)[C@](C)(Cc1ccccc1)NC(=O)[C@H](CC(=O)O)NC(=O)[C@H](CCCNC(=N)N)NC(=O)[C@H](C)NC(=O)[C@H](C)NC(=O)[C@H](CCCCNC(=O)COCCOCCNC(=O)COCCOCCNC(=O)CC[C@H](NC(=O)CCCCCCCCCCCCCCCCC(=O)O)C(=O)O)NC(=O)[C@H](CO)NC(=O)[C@H](CC(=O)O)NC(=O)[C@H](CC(C)C)NC(=O)[C@](C)(Cc1ccccc1)NC(=O)[C@H](CCCCN)NC(=O)[C@H](CO)NC(=O)[C@@H](NC(=O)[C@H](CC(=O)O)NC(=O)[C@H](CO)NC(=O)[C@@H](NC(=O)[C@](C)(Cc1ccccc1)NC(=O)[C@H](CO)NC(=O)CNC(=O)[C@H](Cc1c[nH]cn1)NC(=O)C(C)(C)NC(=O)[C@@H](N)Cc1c[nH]cn1)[C@@H](C)O)C(C)C)[C@@H](C)CC)C(=O)N[C@@H](C)C(=O)N[C@@H](CC(N)=O)C(=O)N[C@H](C(N)=O)[C@@H](C)O
# B4: Peptide 18 (peptide)
# peptide: H[Aib]HGS[αMeF]TSDVSK[αMeF]LDSK([AEEA-AEEA-γGlu-C18 diacid])AARD[αMeF]VQSIANT-NH2
# modifications: N-terminus assumed
# SMILES: CC[C@H](C)[C@H](NC(=O)[C@H](CO)NC(=O)[C@H](CCC(N)=O)NC(=O)[C@@H](NC(=O)[C@](C)(Cc1ccccc1)NC(=O)[C@H](CC(=O)O)NC(=O)[C@H](CCCNC(=N)N)NC(=O)[C@H](C)NC(=O)[C@H](C)NC(=O)[C@H](CCCCNC(=O)COCCOCCNC(=O)COCCOCCNC(=O)CC[C@H](NC(=O)CCCCCCCCCCCCCCCCC(=O)O)C(=O)O)NC(=O)[C@H](CO)NC(=O)[C@H](CC(=O)O)NC(=O)[C@H](CC(C)C)NC(=O)[C@](C)(Cc1ccccc1)NC(=O)[C@H](CCCCN)NC(=O)[C@H](CO)NC(=O)[C@@H](NC(=O)[C@H](CC(=O)O)NC(=O)[C@H](CO)NC(=O)[C@@H](NC(=O)[C@](C)(Cc1ccccc1)NC(=O)[C@H](CO)NC(=O)CNC(=O)[C@H](Cc1c[nH]cn1)NC(=O)C(C)(C)NC(=O)[C@@H](N)Cc1c[nH]cn1)[C@@H](C)O)C(C)C)C(C)C)C(=O)N[C@@H](C)C(=O)N[C@@H](CC(N)=O)C(=O)N[C@H](C(N)=O)[C@@H](C)O
# B5: Peptide 21 (peptide)
# peptide: H[Aib]HGS[αMeF]TSDVSK[αMeF]LDSK([γGlu-C18 diacid])AAQD[αMeF]VESIANT-NH2
# modifications: N-terminus assumed
# SMILES: CC[C@H](C)[C@H](NC(=O)[C@H](CO)NC(=O)[C@H](CCC(=O)O)NC(=O)[C@@H](NC(=O)[C@](C)(Cc1ccccc1)NC(=O)[C@H](CC(=O)O)NC(=O)[C@H](CCC(N)=O)NC(=O)[C@H](C)NC(=O)[C@H](C)NC(=O)[C@H](CCCCNC(=O)CC[C@H](NC(=O)CCCCCCCCCCCCCCCCC(=O)O)C(=O)O)NC(=O)[C@H](CO)NC(=O)[C@H](CC(=O)O)NC(=O)[C@H](CC(C)C)NC(=O)[C@](C)(Cc1ccccc1)NC(=O)[C@H](CCCCN)NC(=O)[C@H](CO)NC(=O)[C@@H](NC(=O)[C@H](CC(=O)O)NC(=O)[C@H](CO)NC(=O)[C@@H](NC(=O)[C@](C)(Cc1ccccc1)NC(=O)[C@H](CO)NC(=O)CNC(=O)[C@H](Cc1c[nH]cn1)NC(=O)C(C)(C)NC(=O)[C@@H](N)Cc1c[nH]cn1)[C@@H](C)O)C(C)C)C(C)C)C(=O)N[C@@H](C)C(=O)N[C@@H](CC(N)=O)C(=O)N[C@H](C(N)=O)[C@@H](C)O
# B6: Peptide 15 (peptide)
# peptide: H[Aib]HGS[αMeF]TSDVSK[αMeF]LDSK([AEEA-AEEA-γGlu-C18 diacid])AARD[αMeF]VE[Aib]IANT-NH2
# modifications: N-terminus assumed
# SMILES: CC[C@H](C)[C@H](NC(=O)C(C)(C)NC(=O)[C@H](CCC(=O)O)NC(=O)[C@@H](NC(=O)[C@](C)(Cc1ccccc1)NC(=O)[C@H](CC(=O)O)NC(=O)[C@H](CCCNC(=N)N)NC(=O)[C@H](C)NC(=O)[C@H](C)NC(=O)[C@H](CCCCNC(=O)COCCOCCNC(=O)COCCOCCNC(=O)CC[C@H](NC(=O)CCCCCCCCCCCCCCCCC(=O)O)C(=O)O)NC(=O)[C@H](CO)NC(=O)[C@H](CC(=O)O)NC(=O)[C@H](CC(C)C)NC(=O)[C@](C)(Cc1ccccc1)NC(=O)[C@H](CCCCN)NC(=O)[C@H](CO)NC(=O)[C@@H](NC(=O)[C@H](CC(=O)O)NC(=O)[C@H](CO)NC(=O)[C@@H](NC(=O)[C@](C)(Cc1ccccc1)NC(=O)[C@H](CO)NC(=O)CNC(=O)[C@H](Cc1c[nH]cn1)NC(=O)C(C)(C)NC(=O)[C@@H](N)Cc1c[nH]cn1)[C@@H](C)O)C(C)C)C(C)C)C(=O)N[C@@H](C)C(=O)N[C@@H](CC(N)=O)C(=O)N[C@H](C(N)=O)[C@@H](C)O
# B7: Peptide 19 (peptide)
# peptide: H[Aib]HGS[αMeF]TSDVSK[αMeF]LDSK([AEEA-AEEA-γGlu-γGlu-C18 diacid])AARD[αMeF]VQ[Aib]IANT-NH2
# modifications: N-terminus assumed
# SMILES: CC[C@H](C)[C@H](NC(=O)C(C)(C)NC(=O)[C@H](CCC(N)=O)NC(=O)[C@@H](NC(=O)[C@](C)(Cc1ccccc1)NC(=O)[C@H](CC(=O)O)NC(=O)[C@H](CCCNC(=N)N)NC(=O)[C@H](C)NC(=O)[C@H](C)NC(=O)[C@H](CCCCNC(=O)COCCOCCNC(=O)COCCOCCNC(=O)CC[C@H](NC(=O)CC[C@H](NC(=O)CCCCCCCCCCCCCCCCC(=O)O)C(=O)O)C(=O)O)NC(=O)[C@H](CO)NC(=O)[C@H](CC(=O)O)NC(=O)[C@H](CC(C)C)NC(=O)[C@](C)(Cc1ccccc1)NC(=O)[C@H](CCCCN)NC(=O)[C@H](CO)NC(=O)[C@@H](NC(=O)[C@H](CC(=O)O)NC(=O)[C@H](CO)NC(=O)[C@@H](NC(=O)[C@](C)(Cc1ccccc1)NC(=O)[C@H](CO)NC(=O)CNC(=O)[C@H](Cc1c[nH]cn1)NC(=O)C(C)(C)NC(=O)[C@@H](N)Cc1c[nH]cn1)[C@@H](C)O)C(C)C)C(C)C)C(=O)N[C@@H](C)C(=O)N[C@@H](CC(N)=O)C(=O)N[C@H](C(N)=O)[C@@H](C)O
# Target: human GLP-1 receptor (human, UniProt P43220)
# Test: cell-based or functional assay
row,Binder,"cAMP production, hGLP-1R EC50 (pM)"
1,B1,45
2,B2,3200
3,B3,33
4,B4,20.5
5,B5,378
6,B6,33.1
7,B7,38.3
8,H[αMeS]QGS[αMeF]TSDVSKILDSK([PEG2′-PEG2′-γGlu-Stearoyl])AAQD[αMeF]VQ[Aib]IINT-NH2 [Peptide 133],1.06

# Target: human glucagon receptor (human, UniProt P47871)
# Test: cell-based or functional assay
row,Binder,"cAMP production, hGluc-R EC50 (pM)"
1,B1,135
2,B2,> 27100
3,B3,105
4,B4,122
5,B5,68.8
6,B6,61.4
7,B7,133
8,H[αMeS]QGS[αMeF]TSDVSKILDSK([PEG2′-PEG2′-γGlu-Stearoyl])AAQD[αMeF]VQ[Aib]IINT-NH2 [Peptide 133],30
